# Results published in patent US20180346573A1 (I MAB, published 2018).
# Numbering of substitutions follows the chain as printed.
# B1: Hu1210-8 (antibody, V domains shown)
# VH: EVQLVESGGGLVKPGGSLRLSCAASGFTFSSYDMSWVRQAPGKGLEWVATISDGGGYIYYSDSVKGRFTISRDNAKNSLYLQMNSLRAEDTAVYYCAREFGKRYALDYWGQGTTVTVSS
# VL: DIQMTQSPSSLSASVGDRVTITCKASQDVTPAVAWYQQKPGKSPKLLIYSTSSRYTGVPSRFSGSGSGTDFTFTISSLQPEDIATYYCQQHYTTPLTFGQGTKLEIK
# B2: Hu1210-27 (antibody, V domains shown)
# VH: B1 VH with K13Q, Y95I, T114L
# VL: DIQMTQSPSSLSASVGDRVTITCKASQDVTPAVAWYQQKPGKAPKLLIYSTSSRYTGVPSRFSGSGSGTDFTLTISSLQPEDFATYYCQQHYTTPLTFGQGTKLEIKR
# B3: Hu1210-31 (antibody, V domains shown)
# VH: B1 VH with K13Q, Y95I
# VL: B2 VL
# B4: Hu1210-17 (antibody, V domains shown)
# VH: B1 VH with K13Q, G44S, A88D, Y95I
# VL: B1 VL with S43A
# B5: Hu1210-36 (antibody, V domains shown)
# VH: B1 VH with K13Q, A40T, G42E, G44S, S78N, Y95I, T114L
# VL: B2 VL
# B6: H1210 chimera (antibody, V domains shown)
# VH: EVKLVESGGDLVKPGGSLKLSCAASGFTFSSYDMSWVRQTPEKSLEWVATISDGGGYIYYSDSVKGRFTISRDNAKNNLYLQMSSLRSEDTALYICAREFGKRYALDYWGQGTSVTVSS
# VL: DIVMTQSHKFMSTSVGDRVSISCKASQDVTPAVAWYQQKPGQSPKLLIYSTSSRYTGVPDRFTGSGSGTDFTFTISSVQAEDLAVYYCQQHYTTPLTFGAGTKLELK
# notes: also called chimeric antibody
# B7: Hu1210-22 (antibody, V domains shown)
# VH: B1 VH with K13Q, G44S, A88D, Y95I
# VL: B1 VL
# B8: Hu1210-3 (antibody, V domains shown)
# VH: B1 VH with G44S, Y95I
# VL: B1 VL with S43A
# notes: Not the mouse mAb HL1210-3
# B9: Hu1210-19 (antibody, V domains shown)
# VH: B1 VH with V5L, K13Q, G44S, A75S, S78T, Y95I
# VL: B1 VL
# B10: Hu1210-16 (antibody, V domains shown)
# VH: B1 VH with K13Q, A88D
# VL: B1 VL with S43A
# B11: Hu1210-14 (antibody, V domains shown)
# VH: B1 VH with V5L, K13Q, G44S, A75S, S78T, Y95I
# VL: B1 VL with S43A
# Target: human PD-L1 expressed on CHOK1 cells (PDL1-CHOK1 cell line) (human) (UniProt Q9NZQ7)
# Sequence (Q9NZQ7 19-290): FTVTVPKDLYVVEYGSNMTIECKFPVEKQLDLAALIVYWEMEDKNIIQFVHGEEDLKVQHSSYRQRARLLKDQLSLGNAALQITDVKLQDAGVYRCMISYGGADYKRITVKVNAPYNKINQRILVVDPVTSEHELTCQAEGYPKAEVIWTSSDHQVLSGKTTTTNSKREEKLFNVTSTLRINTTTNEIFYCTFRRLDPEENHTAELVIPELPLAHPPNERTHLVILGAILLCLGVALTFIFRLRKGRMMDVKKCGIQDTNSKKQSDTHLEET
# Experiment: FACS on PDL1-CHOK1 cells, MFI of Alexa 488 anti-human IgG; EC50 table under the graph, unit from the x axis Antibodies(nM); fit value of a flat control curve, see non_binding
row,EC50 [µM],Molecule
1,9.55,Hu IgG (antibody)

# Target: T1, human PD-L1 expressed on CHOK1 cells (PDL1-CHOK1 cell line) (human, UniProt Q9NZQ7 19-290)
# T1 construct: whole, on cells; also called PDL1-CHOK1 cells; PD-L1 expressed on mammalian cells
# T1 sequence (Q9NZQ7 19-290): as above
# Experiment: FACS receptor blocking: PDL1-CHOK1 cells, competitor Bio-PD1 (30 µg/ml)
# Description: To evaluate the blocking effect of humanized antibodies on human PD-L1 expressed on mammalian cells to bind to its receptor PD-1, the FACS-based receptor blocking assay was employed. Briefly, PDL1-CHOK1 cells were firstly incubated with 3-fold serious diluted HL1210-3 mouse mAb starting at 20 μg/ml at RT for 1 hour. After wash by FACS buffer (PBS with 2% FBS), the biotin-labeled huPD-1 were added to each well and incubated at RT for 1 hour. Then, the Streptavidin-PE were added to each well for 0.5 hour post twice wash with FACS buffer. The mean florescence intensity (MFI) of PE were evaluated by FACSAriaIII.
row,TOP [%],Molecule
1,86.3,B1
2,104,B2
3,92.9,B3
4,80.9,B4
5,91.8,B5
6,87.2,B6
7,85.8,B7
8,84.3,B8
9,87.5,B9
10,88,B10
11,79.6,B11
